The series is described as follows: protein stability index of a GFP-peptide fusion (GPS, HEK-293T) (PSI 1-6); higher = more stable. As to conditions: c terminus: a fixed tail appended.

± gives the standard deviation.
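Note: 24-mer peptide tiles fused after GFP, lentivirally expressed, FACS-sorted into six equal bins by GFP/DsRed ratio, decoded by Illumina sequencing, PSI is the read-weighted mean bin number.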

For EWASHTAALTNKHSQELTNEKEKA [SASS6], the protein stability index reads like this: (treatment: DMSO) 5.574 ± 0.002; (treatment: MLN4924 1 uM, 8 h) 5.39 ± 0.19.

EYIDPETKKHIPYREHKSLTGTAR [CSNK1G1]: the protein stability index reads like this: (treatment: DMSO) 4.15 ± 0.28; (treatment: MLN4924 1 uM, 8 h) 4.08 ± 0.42.

Regarding FAESLQCKVDCEANLTPNVGGYFV [P3H4], the protein stability index is, setting by setting: (treatment: DMSO) 2.22 ± 0.9; (treatment: MLN4924 1 uM, 8 h) 2.42 ± 0.65.

As for FALIAVVFLASGAVSVMKKCRKLE [SLC19A2], the protein stability index runs as follows: (treatment: DMSO) 3.18 ± 0.35; (treatment: MLN4924 1 uM, 8 h) 3 ± 0.29.

On to FATPEREMRISESAASGARFPLDS [PCDHGC5], for which the protein stability index reads like this: (treatment: DMSO) 4.44 ± 0.11; (treatment: MLN4924 1 uM, 8 h) 4.57 ± 0.3.

With FDIARIERCNQLLRALKLVITALK [ZER1], the protein stability index by setting is: (treatment: DMSO) 2.33 ± 0.6; (treatment: MLN4924 1 uM, 8 h) 2.41 ± 0.37.

As to FDVHPNELTNGVINAAFMLLFKDL [SNAP91], the protein stability index (treatment: DMSO) was 2.84 ± 0.81 and the protein stability index (treatment: MLN4924 1 uM, 8 h) was found to be 2.24 ± 0.41.

On to FEREPSTSDLGTTDVQKKKLVDAI [RIPK4], for which the protein stability index was found to be 4.62 ± 0.084 (treatment: DMSO) and 4.87 ± 0.29 (treatment: MLN4924 1 uM, 8 h).

In the case of FETQLKTLCQFPETLLGDPKRRMR [KCNA3], the protein stability index amounted to 3.54 ± 0.35 (treatment: DMSO) and 3.65 ± 0.28 (treatment: MLN4924 1 uM, 8 h).

With FFAFLHCWLNAFAEMLRFGDRMFY [SOAT2], the protein stability index stood at 3.14 ± 0.56 (treatment: DMSO) and 3.44 ± 0.23 (treatment: MLN4924 1 uM, 8 h).

On to FGGGYGGGLGGGYGGGLGGGFGGG [KRT13], for which the protein stability index is, setting by setting: (treatment: DMSO) 2.37 ± 1.4; (treatment: MLN4924 1 uM, 8 h) 2.88 ± 0.15.

For the sequence FGGQNAHNQIAIYAHQPRTADEIP [FUT8], the protein stability index by setting is: (treatment: DMSO) 3.43 ± 0.23; (treatment: MLN4924 1 uM, 8 h) 3.65 ± 0.33.

FGGVIAFSSYNKQDNNCHFDAALV [SLC6A17] gave a protein stability index (treatment: DMSO) of 2.42 ± 0.32 and a protein stability index (treatment: MLN4924 1 uM, 8 h) of 2.43 ± 0.45.

As for FGHVMHQICAQVSFFFPPVNLPIS [NLN], the protein stability index by setting is: (treatment: DMSO) 2.71 ± 0.69; (treatment: MLN4924 1 uM, 8 h) 3.42 ± 0.31.

FGTQVENFSTFIKCIFTQFRIILG [PKD2L1]: the protein stability index is 2.35 ± 0.058 (treatment: DMSO) and 2.24 ± 0.32 (treatment: MLN4924 1 uM, 8 h).

FGYRPYDKNISPRENILVSLGAVG [SCD] displayed a protein stability index (treatment: DMSO) of 2.03 ± 0.44 and a protein stability index (treatment: MLN4924 1 uM, 8 h) of 2.75 ± 0.53.

For FHTMDELVEHYKKAPIFTSEHGEK [NCK2], the protein stability index amounted to 3.88 ± 0.35 (treatment: DMSO) and 3.97 ± 0.27 (treatment: MLN4924 1 uM, 8 h).

Consider FKDEYKSENIKLREENEKLRLENS [CCDC89], for which the protein stability index by setting is: (treatment: DMSO) 5.25 ± 0.15; (treatment: MLN4924 1 uM, 8 h) 5.2 ± 0.15.

With FKRSVRRNLSYTCRANRNCPIDQH [NR2F2], the protein stability index worked out at 2.71 ± 0.17 (treatment: DMSO) and 2.63 ± 0.33 (treatment: MLN4924 1 uM, 8 h).

As for FLCVLMSDWFNFHGHMCIAFELLG [CLK3], the protein stability index is, setting by setting: (treatment: DMSO) 3.2 ± 0.3; (treatment: MLN4924 1 uM, 8 h) 3.11 ± 0.42.

For FLELAVGQRIRRGSIGVWHYICPR [SLC6A17], the protein stability index came to 2.99 ± 0.97 (treatment: DMSO) and 2.18 ± 0.5 (treatment: MLN4924 1 uM, 8 h).

For the sequence FLGSTEVEQPKGTEVVRDAVRKLK [GULP1], the protein stability index (treatment: DMSO) was 4.62 ± 0.24 and the protein stability index (treatment: MLN4924 1 uM, 8 h) came to 4.62 ± 0.16.

FLIPMLEMVPEKRASAGECLRHPW [SRPK2]: the protein stability index reads like this: (treatment: DMSO) 2.33 ± 0.26; (treatment: MLN4924 1 uM, 8 h) 2.2 ± 0.12.

Regarding FLIVTVAWAAHTRLFQVVGKTDDT [TMEM175], the protein stability index amounted to 2.86 ± 0.12 (treatment: DMSO) and 3.12 ± 0.23 (treatment: MLN4924 1 uM, 8 h).

For the sequence FLVSTHTGEVRTARALLEDDSDTQ [PCDHGC5], the protein stability index was determined as 4.63 ± 0.22 (treatment: DMSO) and 4.76 ± 0.24 (treatment: MLN4924 1 uM, 8 h).

As for FLYVTGHIKEILITAGGENVPPIP [ACSBG2], the protein stability index was determined as 2.78 ± 0.93 (treatment: DMSO) and 2.81 ± 1.1 (treatment: MLN4924 1 uM, 8 h).

For the sequence FPKNRVLEGVIDRYQQSKAAALKC [TRIM9], the protein stability index amounted to 2.78 ± 0.14 (treatment: DMSO) and 3.2 ± 0.19 (treatment: MLN4924 1 uM, 8 h).

FQESASTPETRAKFTQDNLCRAQR [TEKT4]: the protein stability index runs as follows: (treatment: DMSO) 4.48 ± 0.18; (treatment: MLN4924 1 uM, 8 h) 4.4 ± 0.25.

For FQKTKNLLTGETEADPEMIKRAED [CLPTM1], the protein stability index runs as follows: (treatment: DMSO) 5.01 ± 0.42; (treatment: MLN4924 1 uM, 8 h) 5.31 ± 0.17.

As for FRLPGLSRREREPEPPAAVDFLEP [FCHO1], the protein stability index is 4.24 ± 0.3 (treatment: DMSO) and 4.31 ± 0.33 (treatment: MLN4924 1 uM, 8 h).

For the sequence FSALYWFNYELVKSWLNGFRPKDQ [SLC25A39], the protein stability index runs as follows: (treatment: DMSO) 2.2 ± 0.39; (treatment: MLN4924 1 uM, 8 h) 2.61 ± 0.92.

For the sequence FSDDCDLPSAQDINRLVGLQNTYM [GLT8D2], the protein stability index by setting is: (treatment: DMSO) 3.68 ± 0.26; (treatment: MLN4924 1 uM, 8 h) 3.66 ± 0.11.

FSETHADPHNSRRGFFFSHVGWLL [SCD]: the protein stability index reads like this: (treatment: DMSO) 2.66 ± 0.29; (treatment: MLN4924 1 uM, 8 h) 2.15 ± 0.21.

With FSHDLTLERKCEKRSVYIDARDEE [ZC3H15], the protein stability index came to 4.47 ± 0.24 (treatment: DMSO) and 4.64 ± 0.34 (treatment: MLN4924 1 uM, 8 h).

FSKASDSLQLVFGIELMEVDPIGH [MAGEA6]: the protein stability index runs as follows: (treatment: DMSO) 2.27 ± 0.56; (treatment: MLN4924 1 uM, 8 h) 2.42 ± 0.41.

Regarding FTLKEEKPKMYFMTMIVSLAAVAW [ARL6IP1], the protein stability index worked out at 3.4 ± 0.81 (treatment: DMSO) and 2.8 ± 0.86 (treatment: MLN4924 1 uM, 8 h).

For the origin of these results see the supplement of paper PMC10567573.
